Laboratory results from the Human Domainome abundance scans (Beltran et al. 2025).
± gives the uncertainty stated by the source.

B1: Peripheral plasma membrane protein CASK, residues 488 to 569; numbered along this chain, O14936 (parent)
chain: VRLVQFQKNTDEPMGITLKMNELNHCIVARIMHGGMIHRQGTLHVGDEIREINGISVANQTVEQLQKMLREMRGSITFKIVP

Variants of: B1
Experiment: abundance fitness (aPCA) (normalised: wild type 0, dead -1); higher = more abundant; growth selection in yeast, the domain comes from the species named
Conditions: Homo sapiens

Point of comparison: VRLVQFQKNTDEPMGITLKMNELNHCIVARIMHGGMIHRQGTLHVGDEIAEINGISVANQTVEQLQKMLREMRGSITFKIVP, abundance fitness -0.025 ± 0.033. Against it:
- VRLVQFQKNTDEPMGITLKMNELNHCIVARIMRGGMIHRQGTLHVGDEIREINGISVANQTVEQLQKMLREMRGSITFKIVP — within error, -0.006 ± 0.024
- VRLVQFQKNTDEPMGITLKMNELNHCIVARIMPGGMIHRQGTLHVGDEIREINGISVANQTVEQLQKMLREMRGSITFKIVP — within error, 0.009 ± 0.033
- VRLVQFQKNTDEPMGITLKMNELNHCIVARIMHGGMIHRQGTLHVLDEIREINGISVANQTVEQLQKMLREMRGSITFKIVP — lower, -0.638 ± 0.05
- VRLVQFQKNTDEPMGITLKMNELNHCIVARIMHGGMIHRQGTLHVEDEIREINGISVANQTVEQLQKMLREMRGSITFKIVP — lower, -0.293 ± 0.042
- VRLVQFQKNTDEPMGITLKMNELNHCIVARIMHGGMIHRQGTLHVYDEIREINGISVANQTVEQLQKMLREMRGSITFKIVP — lower, -1.02 ± 0.28
- VRLVQFQKNTDEPMGITLKMNELNHCIVARIMHGGMIHRQGTLHVGDEIREINGISVANQTVEQLQKMLREMRGSITPKIVP — lower, -0.998 ± 0.12
- VRLVQFQKNTDEPMGITLKMNELNHCIVARIMHGGMIHRQGTLHVGDEIREINGISVANQTVEILQKMLREMRGSITFKIVP — within error, 0.003 ± 0.042
- VRLVQFQKNTDEPMGITLKMNELNHCIVARIMHGGMIHRQGTLHVGDEIRVINGISVANQTVEQLQKMLREMRGSITFKIVP — lower, -0.714 ± 0.3
- VRLVQFQKNTDEPMGITLKMNVLNHCIVARIMHGGMIHRQGTLHVGDEIREINGISVANQTVEQLQKMLREMRGSITFKIVP — within error, -0.079 ± 0.027
- VRLVQFQKNTDEPMGITLKMNTLNHCIVARIMHGGMIHRQGTLHVGDEIREINGISVANQTVEQLQKMLREMRGSITFKIVP — within error, -0.021 ± 0.038
- VRLVQFQKNTDEPMGITLKMNELNHCIVARIMHGGMIHRQGTLHVGDEIREINGISVAMQTVEQLQKMLREMRGSITFKIVP — lower, -0.099 ± 0.033
- VRLVQFQKNTDEPMGITLKMNELNHCIVARIMHGGMIHRQGTLHVGDEIREINGISVATQTVEQLQKMLREMRGSITFKIVP — within error, 0.003 ± 0.033
- VRLVQFQKNTDEPMGITLKMNELNHCIVARIMHGGMIHRQGTLHVGDEIREINGISVAFQTVEQLQKMLREMRGSITFKIVP — within error, -0.016 ± 0.04
- VRLVQFQKVTDEPMGITLKMNELNHCIVARIMHGGMIHRQGTLHVGDEIREINGISVANQTVEQLQKMLREMRGSITFKIVP — within error, 0.005 ± 0.022
- VRLVQFQKNTDEPMGITLKMNELNHCIVARIMHGGMIHRQGTLHVGDEIREINGISVANQTVEQLQKMLREMRLSITFKIVP — lower, -0.842 ± 0.044
- VRLVQFQKNTDEPMGITLKMNELNHCIVERIMHGGMIHRQGTLHVGDEIREINGISVANQTVEQLQKMLREMRGSITFKIVP — within error, 0.003 ± 0.038
- VRLAQFQKNTDEPMGITLKMNELNHCIVARIMHGGMIHRQGTLHVGDEIREINGISVANQTVEQLQKMLREMRGSITFKIVP — lower, -0.199 ± 0.027
- VRLLQFQKNTDEPMGITLKMNELNHCIVARIMHGGMIHRQGTLHVGDEIREINGISVANQTVEQLQKMLREMRGSITFKIVP — within error, -0.024 ± 0.025
- VRLVQFQKNTDEPMGITLKMNELNHCIVARIMHGGMIHRQGTLHVGDEIREINGISVANQTVEQLQKMLRLMRGSITFKIVP — within error, -0.074 ± 0.028
- VRLVQGQKNTDEPMGITLKMNELNHCIVARIMHGGMIHRQGTLHVGDEIREINGISVANQTVEQLQKMLREMRGSITFKIVP — lower, -0.405 ± 0.022
- VRLVQEQKNTDEPMGITLKMNELNHCIVARIMHGGMIHRQGTLHVGDEIREINGISVANQTVEQLQKMLREMRGSITFKIVP — lower, -0.629 ± 0.038
- VRSVQFQKNTDEPMGITLKMNELNHCIVARIMHGGMIHRQGTLHVGDEIREINGISVANQTVEQLQKMLREMRGSITFKIVP — within error, -0.026 ± 0.028
- VRLVQFQKNTDEPMGITLKMNELNHRIVARIMHGGMIHRQGTLHVGDEIREINGISVANQTVEQLQKMLREMRGSITFKIVP — lower, -0.642 ± 0.029
- VRLVQFQKNTDEPMGITLKMNELNHCIVARIMHGGMIHRQGTLHVGDEIQEINGISVANQTVEQLQKMLREMRGSITFKIVP — within error, -0.018 ± 0.049
- VRLVQFQKNTDEPMGITLKMNELNHCIVARIMHGGMIHRQGTLHVGDEIIEINGISVANQTVEQLQKMLREMRGSITFKIVP — within error, 0.034 ± 0.089
- VRLVQFQKNTDEPMGITLKMNEANHCIVARIMHGGMIHRQGTLHVGDEIREINGISVANQTVEQLQKMLREMRGSITFKIVP — higher, 0.039 ± 0.028
- VRLVQFQKNTDEPMGITLCMNELNHCIVARIMHGGMIHRQGTLHVGDEIREINGISVANQTVEQLQKMLREMRGSITFKIVP — within error, -0.089 ± 0.036
- VRLVQFQKNTDEPMGITLVMNELNHCIVARIMHGGMIHRQGTLHVGDEIREINGISVANQTVEQLQKMLREMRGSITFKIVP — within error, -0.008 ± 0.025
- VRLVQFQKNTDEPMGITLKMNELNHCIVARIRHGGMIHRQGTLHVGDEIREINGISVANQTVEQLQKMLREMRGSITFKIVP — within error, 0.003 ± 0.028
- VRLVQFQKNTDEPMGITLKMNELNHCIVARIMHGGMIHRQGTLHVGDEIREINGISVANQTVEQSQKMLREMRGSITFKIVP — lower, -0.183 ± 0.031
- VRLVQFQKNTDEPMGITLKMNELNHCIVARIMHGGMIHRQGTLKVGDEIREINGISVANQTVEQLQKMLREMRGSITFKIVP — within error, 0.007 ± 0.032
- VRLVQFQKNTDEPMGITLKMNELNHCIVARIMHGGMIHRQGTLAVGDEIREINGISVANQTVEQLQKMLREMRGSITFKIVP — within error, -0.006 ± 0.023
- VRLVQFQKNTDEPMGITLKMNELNHCIVARIMHIGMIHRQGTLHVGDEIREINGISVANQTVEQLQKMLREMRGSITFKIVP — lower, -0.478 ± 0.1
- VRLVQFQKNTDEPMGITLKMNELNHCIVARIMHGGMIHRQRTLHVGDEIREINGISVANQTVEQLQKMLREMRGSITFKIVP — lower, -0.127 ± 0.021
- VRLVQFQKNTDEPMGITLKMNELNHCIVARIMHGGMIHRQGTLHVGDEIREINGISVANQTVEQLEKMLREMRGSITFKIVP — within error, 0.018 ± 0.029
- VRLVQFQKNTDEPMGCTLKMNELNHCIVARIMHGGMIHRQGTLHVGDEIREINGISVANQTVEQLQKMLREMRGSITFKIVP — lower, -0.143 ± 0.058
- VRLVQFQKNTDEPMGITLKMNELNHCIVARIMHGGMIHRQGTLHVGDEIREINGISVANQTVRQLQKMLREMRGSITFKIVP — lower, -0.121 ± 0.021
- VRLVQFQKNTDEPMGITLKMNELNHCIVARIMHGGMIHRLGTLHVGDEIREINGISVANQTVEQLQKMLREMRGSITFKIVP — within error, -0.06 ± 0.022
- VRLVQFQKNTDEPMGITLKMNELNHCIVARIMHGGMIHRQGTLHVGDEIREINGISVANQTSEQLQKMLREMRGSITFKIVP — within error, 0.003 ± 0.026
- VRLVQFQKNTDEPMGITLKMNELNHCIVARIMHGGMIHRQGTLHVGDEIREICGISVANQTVEQLQKMLREMRGSITFKIVP — lower, -0.208 ± 0.078
- VRLVQFQKNTDEPMGITLKMNELNHCIVARIMHGGMICRQGTLHVGDEIREINGISVANQTVEQLQKMLREMRGSITFKIVP — lower, -0.129 ± 0.036
- VRLVQFQKNTDEPMGITLKMNELNHCIVARIMHGGMIFRQGTLHVGDEIREINGISVANQTVEQLQKMLREMRGSITFKIVP — within error, -0.057 ± 0.045
- VRLVQFQKNTDEPMGITLKMNELNHCIVARIMHGGMIIRQGTLHVGDEIREINGISVANQTVEQLQKMLREMRGSITFKIVP — lower, -0.295 ± 0.066
- VRLVQFQKNTDEPMGITLKMSELNHCIVARIMHGGMIHRQGTLHVGDEIREINGISVANQTVEQLQKMLREMRGSITFKIVP — within error, -0.045 ± 0.024
- VRLVQFQKNTDEPMGITLKMNELNHCIVARIMHGGMIHRQGTLHVGDEIREINGISVANQTVEQLQKMLREMRGSIEFKIVP — within error, -0.034 ± 0.059
- VRLVRFQKNTDEPMGITLKMNELNHCIVARIMHGGMIHRQGTLHVGDEIREINGISVANQTVEQLQKMLREMRGSITFKIVP — higher, 0.074 ± 0.023
- VRLVQFQKNTDEPMGITLKMNELNHCIVARIMHGGMIHRQGTLHVGDEIREINGISVANQTVEQLQKMLREMRGSITFRIVP — within error, -0.061 ± 0.032
- VRLVQFQKNTDEPMGITLKMNELNTCIVARIMHGGMIHRQGTLHVGDEIREINGISVANQTVEQLQKMLREMRGSITFKIVP — lower, -0.09 ± 0.029
- VRLVQFQKNTDEPMGIFLKMNELNHCIVARIMHGGMIHRQGTLHVGDEIREINGISVANQTVEQLQKMLREMRGSITFKIVP — within error, -0.071 ± 0.045
- VRLVQFQKNTDEPMGITLKMNELNHCIVARIMHGGMIHRQGTRHVGDEIREINGISVANQTVEQLQKMLREMRGSITFKIVP — lower, -0.853 ± 0.036
- VRLVQFQKNTDEPQGITLKMNELNHCIVARIMHGGMIHRQGTLHVGDEIREINGISVANQTVEQLQKMLREMRGSITFKIVP — lower, -0.531 ± 0.07
- VRLVQFQKNTDEPVGITLKMNELNHCIVARIMHGGMIHRQGTLHVGDEIREINGISVANQTVEQLQKMLREMRGSITFKIVP — within error, -0.017 ± 0.032
- VRLVQFQKNTDEPMGITLKMNELNHCIVARIMHGGMIHRQGTLHVGDEIREINGISVANWTVEQLQKMLREMRGSITFKIVP — within error, -0.063 ± 0.027
- VRLVQFQKNTDEPMGITLKMNELNHCIVARIMHGGMRHRQGTLHVGDEIREINGISVANQTVEQLQKMLREMRGSITFKIVP — lower, -0.531 ± 0.026
- VRLVQFQKNTDEPMGITLKMNELNHCIVARIMHGGMFHRQGTLHVGDEIREINGISVANQTVEQLQKMLREMRGSITFKIVP — within error, -0.092 ± 0.048
- VRLVQFQKNTDEPMGITLKMNELNHCIVARIMHGGMIHRQGTLHVGDEIREINGISVANQTVEQLQKMLREMRGSITFKLVP — lower, -0.113 ± 0.028
- VRLVQFQKNTDEPMGITLKMNELNHCIDARIMHGGMIHRQGTLHVGDEIREINGISVANQTVEQLQKMLREMRGSITFKIVP — lower, -0.898 ± 0.096
- VRLVQFQKNTDEPMGITLKMNELNHCIVARIMHGGMIHRQGGLHVGDEIREINGISVANQTVEQLQKMLREMRGSITFKIVP — within error, 0.005 ± 0.02
- VRLVQFQKNTDEPMGITLKMNELNHCIVARIMHGGMIHRQGTLHVGDEIREINGISVANQTVEQLQKMLREMRGSDTFKIVP — lower, -0.818 ± 0.1
- VRLVQFQKNTDEPMGITLKMNELNHCIVARIMHGGMIHRQGTLHVGDEIREINGISVANQTVEQLQKMLREMRGSCTFKIVP — within error, -0.028 ± 0.039
- VRLVQFQKNTDEPMGITLKMNELNHCIVARIMHGGMIHRQGTLHVGDEIREINEISVANQTVEQLQKMLREMRGSITFKIVP — within error, -0.076 ± 0.04
- VRLVQFQKNTDEPMGITLKMNELNHCIVARIMHGGMIHRQGTLHVGDEIREINGNSVANQTVEQLQKMLREMRGSITFKIVP — lower, -0.113 ± 0.05
- VRLVQFQKNTDEPMGITLKMNELNHCIVARIMHGGMIHRQGTLHVGDEIREINGWSVANQTVEQLQKMLREMRGSITFKIVP — within error, -0.074 ± 0.026
- VRLVQFQKNGDEPMGITLKMNELNHCIVARIMHGGMIHRQGTLHVGDEIREINGISVANQTVEQLQKMLREMRGSITFKIVP — within error, -0.01 ± 0.024
- VRLVQFQKNLDEPMGITLKMNELNHCIVARIMHGGMIHRQGTLHVGDEIREINGISVANQTVEQLQKMLREMRGSITFKIVP — within error, -0.05 ± 0.033
- VRLVQFQRNTDEPMGITLKMNELNHCIVARIMHGGMIHRQGTLHVGDEIREINGISVANQTVEQLQKMLREMRGSITFKIVP — within error, -0.021 ± 0.022
